Data on one molecule can be found in CN115925945A (GUANGDONG FEIPENG PHARMACEUTICAL CO LTD, dated 2023).

In this assay the target is T1, 人TIGIT (全长, 表达于CHO工程细胞CHO-hTIGIT) (human, UniProt Q495A1 22-244).
T1 construct: whole, on cells
T1 sequence (looked up): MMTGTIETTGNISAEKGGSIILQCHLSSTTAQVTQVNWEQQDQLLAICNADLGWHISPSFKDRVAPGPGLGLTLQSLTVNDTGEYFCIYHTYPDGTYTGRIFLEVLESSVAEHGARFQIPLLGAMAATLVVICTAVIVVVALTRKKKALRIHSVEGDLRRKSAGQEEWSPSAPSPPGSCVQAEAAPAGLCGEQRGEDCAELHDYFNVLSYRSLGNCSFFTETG
Nature of the assay: in vitro binding activity after stress tests (acid, base, freeze-thaw, high temperature).

B1: 抗TIGIT人源化抗体15H10L3 (R0774), hIgG1亚型 (antibody, V domains shown)
VH: QVQLVQSGAEVKKPGSSVKVSCKASGYSFTSYWMNWVRQAPGQGLEWIGMIRPSDSETRLNQMFKDRVTITVDKSTSTAYMELSSLRSEDTAVYYCAGIHDYGHGAYWGQGTLVTVSS
VL: DIQMTQSPSSLSASVGDRVTITCRASENIYSNLAWYQQKPGKSPKLLVYAASHLPDGVPSRFSGSGSGTDYSLTISSLQPEDFATYYCQHFWGTPRTFGQGTKLEIKR
notes: Full-length chains printed for R0774 (hIgG1 with K214R/D356E/L358M, human kappa); Humanized from TIGIT-5 murine mAb; also called 15H10L3-hIgG1
B1: the binding result is given as “binds”.
